Measured values reported in patent publication US20240343806A1.

Molecular target: mouse CTLA4 (mouse) (UniProt P09793)
Assay: flow cytometry on CHO-mCTLA4 cells; SSC vs Anti-Human-IgGFc-FITC

Chain of mouse CTLA4 (mouse) (P09793 36-223 S182T limits assumed): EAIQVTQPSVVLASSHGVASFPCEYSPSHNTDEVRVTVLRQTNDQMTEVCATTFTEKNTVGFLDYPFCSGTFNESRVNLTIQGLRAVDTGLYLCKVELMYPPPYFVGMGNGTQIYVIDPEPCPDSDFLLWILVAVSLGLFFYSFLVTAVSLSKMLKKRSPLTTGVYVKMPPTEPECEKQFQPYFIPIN

## NC
  % cells in the FITC-positive gate: 0.133%
